Experimental data reported in article PMC6555819, “Comprehensive study of nuclear receptor DNA binding provides a revised framework for understanding receptor specificity”.
Substitutions are numbered along the chain they refer to.

B1: NRC3_wobSeed75_DR3_G24A_o1 (dsDNA)
DNA 1: GCTCTCGGAGGACACGAAGGTCAAAGCTTTCCAGAGGCGATTGACAGCGTAGAATGAAGG
DNA 2: CCTTCATTCTACGCTGTCAATCGCCTCTGGAAAGCTTTGACCTTCGTGTCCTCCGAGAGC
B2: NRC3_wobSeed69_DR2_C15G_o1 (dsDNA)
DNA 1: GCAGTCAAAGTTCAGTAGGTAACGTAAGATTCAGCTGCGATTGACAGCGTAGAATGAAGG
DNA 2: CCTTCATTCTACGCTGTCAATCGCAGCTGAATCTTACGTTACCTACTGAACTTTGACTGC
B3: NRC3_wobSeed20_DR0_C19T_o1 (dsDNA)
DNA 1: GCAGAATGAGGTTAAGATTAGGGAAACAGAATACATGCGATTGACAGCGTAGAATGAAGG
DNA 2: CCTTCATTCTACGCTGTCAATCGCATGTATTCTGTTTCCCTAATCTTAACCTCATTCTGC
B4: NRC3_wobSeed124_DR5_C17G_o1 (dsDNA)
DNA 1: GCCCTACTGGGCCATTGAGAGGTCATTGATCATATGGCGATTGACAGCGTAGAATGAAGG
DNA 2: CCTTCATTCTACGCTGTCAATCGCCATATGATCAATGACCTCTCAATGGCCCAGTAGGGC
B5: NRC3_wobSeed14_DR0_C22G_o1 (dsDNA)
DNA 1: GCCCTGCTAGGTCATGGTCAGGTAATCTACAGTATGGCGATTGACAGCGTAGAATGAAGG
DNA 2: CCTTCATTCTACGCTGTCAATCGCCATACTGTAGATTACCTGACCATGACCTAGCAGGGC
B6: NRC3_wobSeed14_DR0_T5C_o1 (dsDNA)
DNA 1: B5 DNA 1 with T5C, G22C
DNA 2: B5 DNA 2 with C39G, A56G
B7: NRC3_wobSeed134_DR5_A30G_o1 (dsDNA)
DNA 1: GCGCTGCTAGGTCAACTGATGGTCAGCTAGAGCTCGGCGATTGACAGCGTAGAATGAAGG
DNA 2: CCTTCATTCTACGCTGTCAATCGCCGAGCTCTAGCTGACCATCAGTTGACCTAGCAGCGC
B8: NRC3_wobSeed116_DR4_A18G_o1 (dsDNA)
DNA 1: GCAGAATGAGGTTACCAGAGATCAGGGAAACGCTTGGCGATTGACAGCGTAGAATGAAGG
DNA 2: CCTTCATTCTACGCTGTCAATCGCCAAGCGTTTCCCTGATCTCTGGTAACCTCATTCTGC
B9: NRC3_wobSeed116_DR4_A6T_o1 (dsDNA)
DNA 1: B8 DNA 1 with A6T, G18A
DNA 2: B8 DNA 2 with C43T, T55A
B10: NRC3_wobSeed116_DR4_C15A_o1 (dsDNA)
DNA 1: B8 DNA 1 with C15A, G18A
DNA 2: B8 DNA 2 with C43T, G46T
B11: NRC3_wobSeed26_DR1_A21T_o1 (dsDNA)
DNA 1: GCTCTAGTTGGTCAAAGGTCTCACACTCGAAATGCGGCGATTGACAGCGTAGAATGAAGG
DNA 2: CCTTCATTCTACGCTGTCAATCGCCGCATTTCGAGTGTGAGACCTTTGACCAACTAGAGC
B12: NRC3_wobSeed141_DR5_G16C_o1 (dsDNA)
DNA 1: GCAGTCAAAGTTCAGCACGAGGTAACGTAAAGCACGGCGATTGACAGCGTAGAATGAAGG
DNA 2: CCTTCATTCTACGCTGTCAATCGCCGTGCTTTACGTTACCTCGTGCTGAACTTTGACTGC
B13: NRC3_wobSeed141_DR5_C26T_o1 (dsDNA)
DNA 1: B12 DNA 1 with C16G, C26T
DNA 2: B12 DNA 2 with G35A, G45C
B14: NRC3_wobSeed64_DR2_G18T_o1 (dsDNA)
DNA 1: GCTAGCCTAGGTCATTGTGCCAGTATAGTACGCATCGCGATTGACAGCGTAGAATGAAGG
DNA 2: CCTTCATTCTACGCTGTCAATCGCGATGCGTACTATACTGGCACAATGACCTAGGCTAGC
B15: NRC3_wobSeed43_DR1_G26C_o1 (dsDNA)
DNA 1: GCCCAGACAGGTGAAAGGTAACTCACTCTGGTACGCGCGATTGACAGCGTAGAATGAAGG
DNA 2: CCTTCATTCTACGCTGTCAATCGCGCGTACCAGAGTGAGTTACCTTTCACCTGTCTGGGC
B16: NRC3_wobSeed47_DR1_A5T_o1 (dsDNA)
DNA 1: GCGGTACGAGGGCAAAGTTGATAGCATCTGTCGACGGCGATTGACAGCGTAGAATGAAGG
DNA 2: CCTTCATTCTACGCTGTCAATCGCCGTCGACAGATGCTATCAACTTTGCCCTCGTACCGC
B17: NRC3_wobSeed137_DR5_A25T_o1 (dsDNA)
DNA 1: GCATATGTAGGTTACATCCGGGTCTTTCAGGCTATGGCGATTGACAGCGTAGAATGAAGG
DNA 2: CCTTCATTCTACGCTGTCAATCGCCATAGCCTGAAAGACCCGGATGTAACCTACATATGC
B18: NRC3_wobSeed36_DR1_G9T_o1 (dsDNA)
DNA 1: GCCCGACTTGGGCAAAGGTTACCATACTCAGTACGAGCGATTGACAGCGTAGAATGAAGG
DNA 2: CCTTCATTCTACGCTGTCAATCGCTCGTACTGAGTATGGTAACCTTTGCCCAAGTCGGGC
B19: NRC3_wobSeed72_DR2_A22G_o1 (dsDNA)
DNA 1: GCTCGAGTAGGTTACGGGGGCGTTCAGGGATGAAGAGCGATTGACAGCGTAGAATGAAGG
DNA 2: CCTTCATTCTACGCTGTCAATCGCTCTTCATCCCTGAACGCCCCCGTAACCTACTCGAGC
B20: NRC3_wobSeed98_DR4_A28T_o1 (dsDNA)
DNA 1: GCACTAGTTGGTCAGCTGAGGTCACACTCAATTCGGGCGATTGACAGCGTAGAATGAAGG
DNA 2: CCTTCATTCTACGCTGTCAATCGCCCGAATTGAGTGTGACCTCAGCTGACCAACTAGTGC
B21: NRC3_wobSeed54_DR2_G15T_o1 (dsDNA)
DNA 1: GCTCTAGCAGGCCATAGGGTCACTCAAGAGGTACGGGCGATTGACAGCGTAGAATGAAGG
DNA 2: CCTTCATTCTACGCTGTCAATCGCCCGTACCTCTTGAGTGACCCTATGGCCTGCTAGAGC
B22: NRC3_wobSeed140_DR5_T15C_o1 (dsDNA)
DNA 1: GCAGAATGAGGTTACACGTAGATCAGGGAAGAAAGTGCGATTGACAGCGTAGAATGAAGG
DNA 2: CCTTCATTCTACGCTGTCAATCGCACTTTCTTCCCTGATCTACGTGTAACCTCATTCTGC
B23: NRC3_wobSeed136_DR5_A30G_o1 (dsDNA)
DNA 1: GCTAGCCTAGGTCATTCAGGGGCCAGTATGGAAAGCGCGATTGACAGCGTAGAATGAAGG
DNA 2: CCTTCATTCTACGCTGTCAATCGCGCTTTCCATACTGGCCCCTGAATGACCTAGGCTAGC
B24: NRC3_wobSeed136_DR5_C24T_o1 (dsDNA)
DNA 1: B23 DNA 1 with C24T, G30A
DNA 2: B23 DNA 2 with C31T, G37A
B25: NRC3_wobSeed31_DR1_A15T_o1 (dsDNA)
DNA 1: GCTCATATAGGTAATAGGTGAAAGTCGGTGTGGTAAGCGATTGACAGCGTAGAATGAAGG
DNA 2: CCTTCATTCTACGCTGTCAATCGCTTACCACACCGACTTTCACCTATTACCTATATGAGC

Molecular target: PPARa:RXRa (Homo sapiens, UniProt Q07869;P19793 full;full)
Sequence (Q07869 whole entry, chain 1 of 2): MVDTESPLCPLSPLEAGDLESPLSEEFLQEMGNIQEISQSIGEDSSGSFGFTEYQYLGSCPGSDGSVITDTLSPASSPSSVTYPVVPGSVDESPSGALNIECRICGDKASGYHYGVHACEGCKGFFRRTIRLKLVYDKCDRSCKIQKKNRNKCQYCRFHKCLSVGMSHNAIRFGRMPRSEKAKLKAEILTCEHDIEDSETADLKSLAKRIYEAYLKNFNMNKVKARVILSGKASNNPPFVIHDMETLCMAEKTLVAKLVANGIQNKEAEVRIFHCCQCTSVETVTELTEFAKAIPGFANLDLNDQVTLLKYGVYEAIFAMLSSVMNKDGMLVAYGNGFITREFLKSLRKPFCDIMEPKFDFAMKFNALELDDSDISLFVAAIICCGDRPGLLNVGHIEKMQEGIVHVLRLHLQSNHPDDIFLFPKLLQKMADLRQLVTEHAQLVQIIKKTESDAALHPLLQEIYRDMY
Sequence (P19793 whole entry, chain 2 of 2): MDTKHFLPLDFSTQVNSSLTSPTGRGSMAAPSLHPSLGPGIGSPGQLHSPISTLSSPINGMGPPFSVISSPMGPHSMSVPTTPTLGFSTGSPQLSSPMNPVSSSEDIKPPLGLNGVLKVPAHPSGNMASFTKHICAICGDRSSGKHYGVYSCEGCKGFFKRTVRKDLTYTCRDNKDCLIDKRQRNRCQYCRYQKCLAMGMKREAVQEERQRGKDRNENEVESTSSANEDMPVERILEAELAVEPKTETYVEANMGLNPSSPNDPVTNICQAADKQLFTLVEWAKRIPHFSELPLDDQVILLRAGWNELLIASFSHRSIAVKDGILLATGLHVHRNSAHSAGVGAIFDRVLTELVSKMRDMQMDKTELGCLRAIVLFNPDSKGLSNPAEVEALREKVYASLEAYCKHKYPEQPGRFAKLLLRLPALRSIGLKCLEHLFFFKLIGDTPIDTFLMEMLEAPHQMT
Test: no ligand; PBM; 270 nM : 90 nM RXRa; PBS pH 7.4, 2% milk, 0.02% Triton X-100, 1 mM DTT, BSA, 0.4 mg/ml salmon testes DNA
Conditions: tags: GST kept;His cleaved; copies: 1;1; label: surface-attached array probe
Procedure, shortened: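 Each nuclear receptor dimer, without ligand, was incubated for 1 h on custom Agilent 4×180K protein-binding microarrays. Binding was detected with antibodies against each partner (one per run), and scanned fluorescence was regression-normalized. The binding z-scores are referenced to random human genomic background probes.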

Row | Binder | binding signal
1 | B1 | 3.46 PBM z-score against 500 random probes
2 | B2 | 3.56 PBM z-score against 500 random probes
3 | B3 | 3.39 PBM z-score against 500 random probes
4 | B4 | 3.57 PBM z-score against 500 random probes
5 | B5 | 3.51 PBM z-score against 500 random probes
6 | B6 | 3.35 PBM z-score against 500 random probes
7 | B7 | 3.59 PBM z-score against 500 random probes
8 | B8 | 3.63 PBM z-score against 500 random probes
9 | B9 | 3.29 PBM z-score against 500 random probes
10 | B10 | 3.61 PBM z-score against 500 random probes
11 | B11 | 3.41 PBM z-score against 500 random probes
12 | B12 | 3.7 PBM z-score against 500 random probes
13 | B13 | 3.3 PBM z-score against 500 random probes
14 | B14 | 3.37 PBM z-score against 500 random probes
15 | B15 | 3.54 PBM z-score against 500 random probes
16 | B16 | 3.22 PBM z-score against 500 random probes
17 | B17 | 3.32 PBM z-score against 500 random probes
18 | B18 | 3.64 PBM z-score against 500 random probes
19 | B19 | 3.48 PBM z-score against 500 random probes
20 | B20 | 3.53 PBM z-score against 500 random probes
21 | B21 | 3.24 PBM z-score against 500 random probes
22 | B22 | 3.5 PBM z-score against 500 random probes
23 | B23 | 3.67 PBM z-score against 500 random probes
24 | B24 | 3.65 PBM z-score against 500 random probes
25 | B25 | 3.69 PBM z-score against 500 random probes
